In patent US9579367B2:

Biological target: tissue plasminogen activator (tPA)

B1: Xa-K (FXa chemically modified, via a histidine residue in its active site, with a C-terminal lysine tethered by a PEG4 spacer) (enzyme)
light: ANSFLEEMKKGHLERECMEETCSYEEAREVFEDSDKTNEFWNKYKDGDQCETSPCQNQGKCKDGLGEYTCTCLEGFEGKNCELFTRKLCSLDNGDCDQFCHEEQNSVVCSCARGYTLADNGKACIPTGPYPCGKQTLER
heavy: IVGGQECKDGECPWQALLINEENEGFCGGTILSEFYILTAAHCLYQAKRFKVRVGDRNTEQEEGGEAVHEVEVVIKHNRFTKETYDFDIAVLRLKTPITFRMNVAPACLPERDWAESTLMTQKTGIVSGFGRTHEKGRQSTRLKMLEVPYVDRNSCKLSSSFIITQNMFCAGYDTKQEDACQGDSGGPHVTRFKDTYFVTGIVSWGEGCARKGKYGIYTKVTAFLKWIDRSMKTRGLPKAKSHAPEVITSSPLK
modifications: active-site histidine (position 276 in Table A, UniProt P00742 numbering) covalently linked to (D)Phe-Pro-Arg-CH2- carrying a thiol-maleimide-PEG4 spacer with a C-terminally tethered lysine (Lys-mPEG4)
- time to achieve 50% lysis of a plasma clot (turbidity, OD405nm): 10 fold
